Results from patent US20120034215A1 (Daiichi Sankyo, published 2012).
Numbering of substitutions follows the chain as printed. Values belong to the binder of their own block, whether it stands above or below them.

Columns and labels:
[1] = molecular target: MST1R on cells (293alpha cells transfected with pcDNA-DEST40 MST1R; endogenous on PC3, T-47D and BxPC-3 cells) (human, UniProt Q04912 25-1400); test: cell-based or functional assay
[2] = molecular target: T1, mouse MST1R with N-terminal Flag tag, expressed on HEK293T cells (mouse, UniProt Q62190 24-1378); test: flow cytometry on HEK293T cells transfected with Flag-tagged mouse MST1R (expression shown by αFlag), FITC-labeled secondary antibody
T1 construct: ORF cloned excluding the signal peptide region; not shown: N-terminal Flag tag from vector pFLAG-myc-CMV-19 (Sigma)
T1 sequence: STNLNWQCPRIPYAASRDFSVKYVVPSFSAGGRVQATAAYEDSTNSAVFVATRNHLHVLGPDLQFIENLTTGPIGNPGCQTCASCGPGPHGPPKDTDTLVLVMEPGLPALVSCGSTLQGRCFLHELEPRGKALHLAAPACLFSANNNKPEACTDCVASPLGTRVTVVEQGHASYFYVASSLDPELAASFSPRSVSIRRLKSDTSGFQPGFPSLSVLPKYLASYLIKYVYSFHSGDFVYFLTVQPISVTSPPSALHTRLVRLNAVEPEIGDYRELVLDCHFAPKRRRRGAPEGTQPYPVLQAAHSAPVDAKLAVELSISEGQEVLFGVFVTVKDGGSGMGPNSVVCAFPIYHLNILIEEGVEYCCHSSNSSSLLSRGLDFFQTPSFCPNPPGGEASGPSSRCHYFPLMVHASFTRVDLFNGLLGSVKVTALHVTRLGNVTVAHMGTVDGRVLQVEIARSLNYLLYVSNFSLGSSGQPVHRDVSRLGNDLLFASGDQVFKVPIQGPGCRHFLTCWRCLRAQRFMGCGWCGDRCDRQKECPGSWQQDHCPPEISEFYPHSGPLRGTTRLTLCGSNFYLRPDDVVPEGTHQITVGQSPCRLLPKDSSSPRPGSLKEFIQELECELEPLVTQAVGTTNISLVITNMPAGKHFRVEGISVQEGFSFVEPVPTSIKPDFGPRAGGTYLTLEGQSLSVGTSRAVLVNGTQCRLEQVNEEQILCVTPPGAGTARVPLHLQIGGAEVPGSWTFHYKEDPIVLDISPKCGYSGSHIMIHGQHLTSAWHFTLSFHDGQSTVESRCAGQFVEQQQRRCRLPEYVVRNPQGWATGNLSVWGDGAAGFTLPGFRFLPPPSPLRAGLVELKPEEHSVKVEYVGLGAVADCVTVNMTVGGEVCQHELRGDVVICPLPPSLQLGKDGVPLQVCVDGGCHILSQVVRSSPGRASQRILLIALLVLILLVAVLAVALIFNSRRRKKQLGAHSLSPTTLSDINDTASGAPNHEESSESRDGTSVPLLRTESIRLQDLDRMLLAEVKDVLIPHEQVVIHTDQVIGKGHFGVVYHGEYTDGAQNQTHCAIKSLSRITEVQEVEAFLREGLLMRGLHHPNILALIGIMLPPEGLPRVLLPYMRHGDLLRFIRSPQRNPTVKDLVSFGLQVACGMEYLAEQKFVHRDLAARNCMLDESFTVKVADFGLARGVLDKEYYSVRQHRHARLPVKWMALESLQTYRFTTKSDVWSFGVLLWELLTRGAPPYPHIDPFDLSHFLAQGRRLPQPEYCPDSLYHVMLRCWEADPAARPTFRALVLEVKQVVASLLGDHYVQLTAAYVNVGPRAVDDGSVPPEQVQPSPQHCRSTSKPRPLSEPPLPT
Method: Cells (5×10⁵ cells/well) were incubated with Fab or IgG antibodies at the indicated concentrations in 50 μl FACS buffer (PBS, 5% FCS) for 60 min at 4° C. in round bottom 96-well culture plates (Corning). Cells were washed twice and then incubated with Fluorescein Isothiocyanate (FITC) conjugated detection antibody for 30 min at 4° C. Cells were washed again, resuspended in 0.3 ml FACS buffer and then analyzed by flow cytometry in a Cytomics FC500 (Beckman Coulter, Inc.). Data were analysed via FlowJo software (Tomy digital biology Co., Ltd.). Polyclonal goat anti-hMSP R IgG (R&D systems) or anti-FLAG M2 antibody (Sigma) was used as a positive control and MOR03207 (anti-lysozyme) antibody was used as a negative control.
FACS-analysis of MST1R ortholog-expressing cells: Human MST1R (cDNA nucleotide sequence is shown as GenBank Accession No: NM_{—}002447.2), cynomolgus monkey MST1R and mouse MST1R (cDNA nucleotide sequence is shown as GeneBank Accession No: NM_{—}009074.1) expression vector containing N-terminal Flag tag (pFLAG-myc-CMV-19, Sigma) were constructed. cDNA encoding cynomolgus monkey MST1R was amplified by PCR using cynomolgus monkey stomach cDNA as a template with forward and reverse primers having nucleotide sequences of SEQ ID NO: 34 and 35, respectively. By sequencing analysis of PCR product, the cynomolgus MST1R ORF nucleotide sequence was identified as shown in SEQ ID NO: 36. The corresponding amino acid sequence was shown in SEQ ID NO: 37. Then human, cynomolgus monkey and mouse MST1R ORF cDNA, excluding signal peptide regions, were amplified using respective forward and reverse primers having nucleotide sequences of SEQ ID NO: 38 and 39 (human), 40 and 41 (cynomolgus monkey), and 42 and 43 (mouse) with appropriate cloning sites and then cloned into pFLAG-myc-CMV-19. An amplified human MST1R fragment encodes amino acids corresponding to GenBank Accession No: NP_{—}002438.2 (SEQ ID NO: 45). A Mouse MST1R fragment encodes amino acids corresponding to GenBank Accession No: NP_{—}033100.1 (SEQ ID NO: 47) except for those amino acid differences at positions: 688 (Leu to Pro), 713 (Ile to Val), 714 (Ala to Gly) and 719 (Ala to Val). These expression vectors were transfected into HEK293T cells. For FACS-analysis, cells were incubated with 2 μg/ml primary antibodies followed by incubation with FITC-labeled secondary antibody as described above.

B1: MOR07923 (human IgG1) (antibody, V domains shown)
VH: QVQLVESGGGLVQPGGSLRLSCAASGFTFNSYSMSWVRQAPGKGLEWVSYISSRSSTTYYADSVKGRFTISRDNSKNTLYLQMNSLRAEDTAVYYCARGYFHGMDYWGQGTLVTVSS
VL: DIVLTQSPATLSLSPGERATLSCRASQSVSFDYLGWYQQKPGQAPRLLIYGASNRATGVPARFSGSGSGTDFTLTISSLEPEDFATYYCFQYLIVPFTFGQGTKVEIKR
Reporter assay IC50 (ng/ml); Elk1 luciferase reporter gene assay in the presence of 100 ng/ml MSP [1]: 9 ng/mL
binding result [2]: no binding (tested: 2 µg/ml)

B2: MOR07926 (human IgG1) (antibody, V domains shown)
VH: B1 VH
VL: B1 VL with Y92A, V95M
Reporter assay IC50 (ng/ml); Elk1 luciferase reporter gene assay in the presence of 100 ng/ml MSP [1]: 11.4 ng/mL
binding result [2]: no binding (tested: 2 µg/ml)

B4: MOR07692 (human IgG1) (antibody, V domains shown)
VH: B1 VH
VL: B1 VL with F90Q, L93Y, I94N, V95M, F97Y
Reporter assay IC50 (ng/ml); Elk1 luciferase reporter gene assay in the presence of 100 ng/ml MSP [1]: 4.4 ng/mL
binding result [2]: no binding (tested: 2 µg/ml)

Now from value to binder:

Reporter assay IC50 (ng/ml); Elk1 luciferase reporter gene assay in the presence of 100 ng/ml MSP [1]: 15.7 ng/mL
binding result [2]: no binding (tested: 2 µg/ml)
B3: MOR07924 (human IgG1) (antibody, V domains shown)
VH: B1 VH
VL: B1 VL with F90Q, L93N, V95N

Reporter assay IC50 (ng/ml); Elk1 luciferase reporter gene assay in the presence of 100 ng/ml MSP [1]: 5.9 ng/mL
binding result [2]: no binding (tested: 2 µg/ml)
B5: MOR07925 (human IgG1) (antibody, V domains shown)
VH: B1 VH
VL: B1 VL with F90L, L93F, I94N, V95P, F97H
